Test system: Escherichia coli TOP10
Test: shrunken log2 fold change of peptide-encoding DNA abundance (4.5 h post-induction vs induction); higher = less antimicrobial activity (less host growth inhibition)
Settings: time post-induction: 4.5 h; library: site-saturation at positions 5, 18, 19, 20
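Note: peptides expressed intracellularly from a pBAD plasmid library in pooled LB shake-flask culture, induced with 0.3% L-arabinose, DNA abundance read by NGS, three biological replicates, DESeq2 with apeglm shrinkage.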

## RRIRRRPPRLPRPRPRPEYRPRP
  shrunken log2 fold change: -0.0195

## RRIRHRPPRLPRPRPRPACGPRP
  shrunken log2 fold change: 0.216

## RRIRTRPPRLPRPRPRPIKHPRP
  shrunken log2 fold change: -0.454

## RRIRVRPPRLPRPRPRPNHEPRP
  shrunken log2 fold change: -0.547

## RRIRIRPPRLPRPRPRPPAIPRP
  shrunken log2 fold change: 0.00229

## RRIRCRPPRLPRPRPRPFHVPRP
  shrunken log2 fold change: -0.893

## RRIRMRPPRLPRPRPRPIARPRP
  shrunken log2 fold change: 0.184

## RRIRLRPPRLPRPRPRPHGWPRP
  shrunken log2 fold change: 0.0568

## RRIRCRPPRLPRPRPRPNMWPRP
  shrunken log2 fold change: -0.0109

## RRIRTRPPRLPRPRPRPMAHPRP
  shrunken log2 fold change: -0.161

## RRIRWRPPRLPRPRPRPNRSPRP
  shrunken log2 fold change: -0.0777

## RRIRFRPPRLPRPRPRPRMSPRP
  shrunken log2 fold change: 0.000208

## RRIRIRPPRLPRPRPRPWPPPRP
  shrunken log2 fold change: 0.0965

## RRIRKRPPRLPRPRPRPTADPRP
  shrunken log2 fold change: 0.345

## RRIRIRPPRLPRPRPRPMCGPRP
  shrunken log2 fold change: -0.0603

## RRIRVRPPRLPRPRPRPKSDPRP
  shrunken log2 fold change: -0.142

## RRIRHRPPRLPRPRPRPGECPRP
  shrunken log2 fold change: -0.377

## RRIRLRPPRLPRPRPRPDDVPRP
  shrunken log2 fold change: -0.00776

## RRIRNRPPRLPRPRPRPGVDPRP
  shrunken log2 fold change: -0.154

## RRIRHRPPRLPRPRPRPVCMPRP
  shrunken log2 fold change: -0.0845

## RRIRHRPPRLPRPRPRPEVDPRP
  shrunken log2 fold change: -0.00884

## RRIRRRPPRLPRPRPRPTRVPRP
  shrunken log2 fold change: 0.952

## RRIRERPPRLPRPRPRPSSCPRP
  shrunken log2 fold change: -0.0232

## RRIRPRPPRLPRPRPRPMCHPRP
  shrunken log2 fold change: -0.22

## RRIRPRPPRLPRPRPRPCTAPRP
  shrunken log2 fold change: -0.109

## RRIRKRPPRLPRPRPRPNYCPRP
  shrunken log2 fold change: -0.0369

## RRIRKRPPRLPRPRPRPGWEPRP
  shrunken log2 fold change: -0.00146

## RRIRVRPPRLPRPRPRPHWVPRP
  shrunken log2 fold change: -0.152

## RRIRHRPPRLPRPRPRPMCFPRP
  shrunken log2 fold change: -0.574

## RRIRRRPPRLPRPRPRPWYPPRP
  shrunken log2 fold change: -0.206

## RRIRNRPPRLPRPRPRPIVVPRP
  shrunken log2 fold change: 0.0207

## RRIRGRPPRLPRPRPRPYHHPRP
  shrunken log2 fold change: -0.176

## RRIRTRPPRLPRPRPRPQSHPRP
  shrunken log2 fold change: -0.207

## RRIRWRPPRLPRPRPRPIGTPRP
  shrunken log2 fold change: 0.175

## RRIRDRPPRLPRPRPRPHYNPRP
  shrunken log2 fold change: -0.635

## RRIRWRPPRLPRPRPRPVWCPRP
  shrunken log2 fold change: 0.0155

## RRIRVRPPRLPRPRPRPLLLPRP
  shrunken log2 fold change: -0.52

## RRIRARPPRLPRPRPRPPYEPRP
  shrunken log2 fold change: 0.194

## RRIRMRPPRLPRPRPRPKSWPRP
  shrunken log2 fold change: 1.11

## RRIRNRPPRLPRPRPRPVQAPRP
  shrunken log2 fold change: -0.00783

## RRIRWRPPRLPRPRPRPRYHPRP
  shrunken log2 fold change: -0.198

## RRIRERPPRLPRPRPRPQPHPRP
  shrunken log2 fold change: -0.261

## RRIRRRPPRLPRPRPRPMYLPRP
  shrunken log2 fold change: -0.0501

## RRIRKRPPRLPRPRPRPFPHPRP
  shrunken log2 fold change: -0.04

## RRIRVRPPRLPRPRPRPKDLPRP
  shrunken log2 fold change: 0.0892

## RRIRFRPPRLPRPRPRPCTVPRP
  shrunken log2 fold change: -0.318

## RRIRPRPPRLPRPRPRPALDPRP
  shrunken log2 fold change: 0.628

## RRIRLRPPRLPRPRPRPHWNPRP
  shrunken log2 fold change: -0.315

## RRIRERPPRLPRPRPRPFSKPRP
  shrunken log2 fold change: -0.0819

## RRIRFRPPRLPRPRPRPMQMPRP
  shrunken log2 fold change: 0.142

## RRIRPRPPRLPRPRPRPYSFPRP
  shrunken log2 fold change: -0.796

## RRIRTRPPRLPRPRPRPGFRPRP
  shrunken log2 fold change: -0.0537

## RRIRTRPPRLPRPRPRPPCSPRP
  shrunken log2 fold change: -0.00786

## RRIRWRPPRLPRPRPRPDIMPRP
  shrunken log2 fold change: 0.0439

## RRIRSRPPRLPRPRPRPKYIPRP
  shrunken log2 fold change: -0.383

## RRIRWRPPRLPRPRPRPRRYPRP
  shrunken log2 fold change: 0.18

## RRIRWRPPRLPRPRPRPQRNPRP
  shrunken log2 fold change: 0.0121

## RRIRRRPPRLPRPRPRPFYSPRP
  shrunken log2 fold change: -0.307

## RRIRRRPPRLPRPRPRPQMNPRP
  shrunken log2 fold change: -0.107

## RRIRWRPPRLPRPRPRPSHTPRP
  shrunken log2 fold change: 0.0847

## RRIRRRPPRLPRPRPRPKSNPRP
  shrunken log2 fold change: 0.0649

## RRIRQRPPRLPRPRPRPNTFPRP
  shrunken log2 fold change: -0.666

## RRIRPRPPRLPRPRPRPGKSPRP
  shrunken log2 fold change: -0.208

## RRIRFRPPRLPRPRPRPGDEPRP
  shrunken log2 fold change: 0.0387

## RRIRHRPPRLPRPRPRPFDSPRP
  shrunken log2 fold change: -0.00149

## RRIRPRPPRLPRPRPRPPDNPRP
  shrunken log2 fold change: 0.246

## RRIRARPPRLPRPRPRPEVSPRP
  shrunken log2 fold change: 0.431

## RRIRPRPPRLPRPRPRPNQEPRP
  shrunken log2 fold change: 0.0875

## RRIRWRPPRLPRPRPRPHEIPRP
  shrunken log2 fold change: 0.0984

## RRIRWRPPRLPRPRPRPKCIPRP
  shrunken log2 fold change: -0.217

## RRIRKRPPRLPRPRPRPPNAPRP
  shrunken log2 fold change: 0.711

## RRIRIRPPRLPRPRPRPFKTPRP
  shrunken log2 fold change: 0.0132

## RRIRKRPPRLPRPRPRPWLRPRP
  shrunken log2 fold change: 0.143

## RRIRFRPPRLPRPRPRPKMNPRP
  shrunken log2 fold change: -0.345

## RRIRARPPRLPRPRPRPYLNPRP
  shrunken log2 fold change: -0.914

## RRIRIRPPRLPRPRPRPENPPRP
  shrunken log2 fold change: -0.695

## RRIRSRPPRLPRPRPRPNGHPRP
  shrunken log2 fold change: -0.0925

## RRIRRRPPRLPRPRPRPTIRPRP
  shrunken log2 fold change: 0.129

## RRIRYRPPRLPRPRPRPVFYPRP
  shrunken log2 fold change: -1.05

## RRIRTRPPRLPRPRPRPIMIPRP
  shrunken log2 fold change: -0.163

## RRIRGRPPRLPRPRPRPDAPPRP
  shrunken log2 fold change: 1.9

## RRIRSRPPRLPRPRPRPPEDPRP
  shrunken log2 fold change: 0.0304

## RRIRKRPPRLPRPRPRPFNLPRP
  shrunken log2 fold change: -0.0494

## RRIRDRPPRLPRPRPRPESEPRP
  shrunken log2 fold change: 0.444

## RRIRMRPPRLPRPRPRPDDQPRP
  shrunken log2 fold change: -0.0167

## RRIRDRPPRLPRPRPRPQFTPRP
  shrunken log2 fold change: 0.0284

## RRIRRRPPRLPRPRPRPVVGPRP
  shrunken log2 fold change: 0.487

## RRIRFRPPRLPRPRPRPFCVPRP
  shrunken log2 fold change: -0.722

## RRIRNRPPRLPRPRPRPMPRPRP
  shrunken log2 fold change: 0.11

## RRIRARPPRLPRPRPRPPRQPRP
  shrunken log2 fold change: 0.769

## RRIRNRPPRLPRPRPRPASAPRP
  shrunken log2 fold change: 0.0499

## RRIRIRPPRLPRPRPRPKRKPRP
  shrunken log2 fold change: -0.105

## RRIRPRPPRLPRPRPRPSNMPRP
  shrunken log2 fold change: -0.884

## RRIRTRPPRLPRPRPRPGLHPRP
  shrunken log2 fold change: -0.102

## RRIRGRPPRLPRPRPRPWTVPRP
  shrunken log2 fold change: -0.0833

## RRIRYRPPRLPRPRPRPSYNPRP
  shrunken log2 fold change: -0.676

## RRIRWRPPRLPRPRPRPMKRPRP
  shrunken log2 fold change: 0.0121

## RRIRMRPPRLPRPRPRPHCAPRP
  shrunken log2 fold change: 1.76

## RRIRSRPPRLPRPRPRPTVWPRP
  shrunken log2 fold change: 0.185

## RRIRLRPPRLPRPRPRPDWAPRP
  shrunken log2 fold change: 0.0283

## RRIRDRPPRLPRPRPRPQTCPRP
  shrunken log2 fold change: 0.0864

## RRIRHRPPRLPRPRPRPMMWPRP
  shrunken log2 fold change: -0.0542

## RRIRRRPPRLPRPRPRPTYAPRP
  shrunken log2 fold change: 0.218

## RRIRSRPPRLPRPRPRPHWQPRP
  shrunken log2 fold change: -0.0893

## RRIRVRPPRLPRPRPRPKAGPRP
  shrunken log2 fold change: 0.0641

## RRIRFRPPRLPRPRPRPQMEPRP
  shrunken log2 fold change: -0.059

## RRIRTRPPRLPRPRPRPDYNPRP
  shrunken log2 fold change: -0.0768

## RRIRGRPPRLPRPRPRPCWRPRP
  shrunken log2 fold change: 0.248

## RRIRIRPPRLPRPRPRPKYGPRP
  shrunken log2 fold change: -0.284
